T1: N-terminally thioredoxin (Trx)-tagged Ct domain of CaeA2 (Actinoalloteichus cyanogriseus, UniProt M1F4W8 2080-2484)
T1 sequence (looked up): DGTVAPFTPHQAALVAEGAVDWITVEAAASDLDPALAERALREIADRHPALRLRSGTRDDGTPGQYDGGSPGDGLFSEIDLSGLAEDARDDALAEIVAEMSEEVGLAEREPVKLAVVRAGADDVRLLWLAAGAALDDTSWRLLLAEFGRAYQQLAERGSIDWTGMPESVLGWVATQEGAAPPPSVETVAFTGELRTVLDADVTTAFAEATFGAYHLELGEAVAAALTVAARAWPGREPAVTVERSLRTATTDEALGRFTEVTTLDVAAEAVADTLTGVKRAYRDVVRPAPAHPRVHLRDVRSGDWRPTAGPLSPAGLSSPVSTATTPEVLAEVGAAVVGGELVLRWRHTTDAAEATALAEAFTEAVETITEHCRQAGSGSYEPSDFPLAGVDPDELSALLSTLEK

B1: MBP-fused CaeB1 variant (enzyme)
chain: MTTGNGAAPPPLTRLSPEDEAWRAHVRAFAEEHIAPLSDRMDRDATLDPGLREKLFSAGLMAVEAPARYGGRGGSLFQVVLTIEEVARVDPGVAVGVDVHNALVVATLLRQGTGDQKRRRLPLLATRQVGAFALSEENAGSDAFAGTTTAVPTSDGGYRINGRKRWTSNAGQADVFLVFARTEGHGSSAFLVDRTAEGLSIDPRTEQMGVRAAATADVVLTDVRVRRQDCVGGPGGGEGVAIGALDIGRIGIAAQMVGLAQGALDEAVAYSRTREQFGQPIGSYQGVRFTLADIATEVAAARALLYDVTRTVAAGTDIAERLRLTAMAKYFASQVAERAASRALEVLGGNGFTREYPLERFYRDVKAGKIYEGTSNMLLRSIAGSL

Legend:
[1] = molecular target: N-terminally thioredoxin (Trx)-tagged Ct domain of CaeA2 (Actinoalloteichus cyanogriseus) (UniProt M1F4W8); assay: ITC
[2] = molecular target: T1, N-terminally thioredoxin (Trx)-tagged …; assay: ITC

| Molecule | Kd [1] [nM] | Kd [2] [nM] |
| --- | --- | --- |
| ColB1 (enzyme) | 1180 |  |
| B1 |  | 530 ± 120 |
